Assay results as given in patent US20260008815A1, “CYCLIC PEPTIDE OR SALT THEREOF, AND USES THEREOF” (FUJIFILM Corporation, priority 2023, published 2026).
Bridge positions count the residues as written; N and C are the ends. Ends that are not written are not given here. COCH2 = acetyl group that carries the bridge

Each binder was assayed against T1, Recombinant Human FGFR2 alpha (IIIc) Fc Chimera Protein, CF (R&D systems, 712-FR-050) (human, UniProt P21802 22-377) (assay: ELISA on plate-bound FGFR2-Fc).
T1 construct: bought; not shown: Fc part of the chimera
T1 sequence (P21802 22-377, change not shown): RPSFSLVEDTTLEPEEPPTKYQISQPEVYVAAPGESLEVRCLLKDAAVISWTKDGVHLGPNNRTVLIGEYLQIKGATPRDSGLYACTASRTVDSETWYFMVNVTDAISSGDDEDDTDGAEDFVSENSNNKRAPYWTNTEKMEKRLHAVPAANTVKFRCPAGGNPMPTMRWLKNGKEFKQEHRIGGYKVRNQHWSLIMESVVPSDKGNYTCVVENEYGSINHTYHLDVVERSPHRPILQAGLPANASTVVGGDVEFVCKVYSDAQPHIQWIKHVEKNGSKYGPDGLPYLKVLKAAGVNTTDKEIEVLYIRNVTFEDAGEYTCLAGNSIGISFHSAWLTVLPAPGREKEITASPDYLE
Protocol: First, 5 ng of Recombinant Human FGFR2 alpha (IIIc) Fc Chimera Protein (R&D systems, 712-FR-050) was immobilized in each well of a 96-well plate, and blocked with Pierce Protein-Free (PBS) Blocking Buffer (Thermo, 37572), and a peptide diluted with Can Get Signal Immunoreaction Enhancer Solution I (TOYOBO, NKB-101) was then added and reacted at room temperature for 3 hours. After washing with 0.05% Tween 20-containing phosphate buffered saline (PBS), an anti-Myc antibody (Cell Signaling, 14038S) diluted with Can Get Signal Immunoreaction Enhancer Solution II (TOYOBO, NKB-101) was added and reacted at room temperature for 2 hours. After washing with 0.05% Tween 20-containing PBS, SuperSignal ELISA Femto Substrate (Thermo, 37075) was added, and the luminescence amount was measured. The dose-response relationship was calculated from using the difference between the luminescence amount in the well in which FGFR was immobilized and the luminescence amount in the well in which FGFR was not immobilized, and the concentration of the peptide at the time of reaction, and the binding affinity to FGFR was evaluated according to the following evaluation criteria. The evaluation result preferably satisfies the evaluation criteria A, B, or C.

| Binder | ELISA luminescence signal at 10 nmol/L peptide, relative to SEQ ID NO: 47 (=1) |
| --- | --- |
| YCEQNYLDPEQYQYFIYFK(COCH2)Y (thioether 2-19 (inferred)) [cyclic peptide SEQ ID NO: 175] | ≥ 0.7 ratio |
| YCEENYQDPEQYQYFIYFK(COCH2)Y (thioether 2-19 (inferred)) [cyclic peptide SEQ ID NO: 201] | ≥ 0.7 ratio |
| YCEENYNDPEQYQYFIYFK(COCH2)Y (thioether 2-19 (inferred)) [cyclic peptide SEQ ID NO: 200] | 0.1 to 0.5 ratio |
| YCEENYLWPEQYQYFIYFK(COCH2)Y (thioether 2-19 (inferred)) [cyclic peptide SEQ ID NO: 213] | 0.5 to 0.7 ratio |
| YCEENYHDPEQYQYFIYFK(COCH2)Y (thioether 2-19 (inferred)) [cyclic peptide SEQ ID NO: 206] | ≥ 0.7 ratio |
| YCEENYLFPEQYQYFIYFK(COCH2)Y (thioether 2-19 (inferred)) [cyclic peptide SEQ ID NO: 211] | ≥ 0.7 ratio |
| YCEENSLDPEQYQYFIYFK(COCH2)Y (thioether 2-19 (inferred)) [cyclic peptide SEQ ID NO: 191] | 0.1 to 0.5 ratio |
| YCEENYLVPEQYQYFIYFK(COCH2)Y (thioether 2-19 (inferred)) [cyclic peptide SEQ ID NO: 210] | 0.1 to 0.5 ratio |
| YCEENYLSPEQYQYFIYFK(COCH2)Y (thioether 2-19 (inferred)) [cyclic peptide SEQ ID NO: 216] | ≥ 0.7 ratio |
| YCEDNYLDPEQYQYFIYFK(COCH2)Y (thioether 2-19 (inferred)) [cyclic peptide SEQ ID NO: 178] | ≥ 0.7 ratio |
| YCERNYLDPEQYQYFIYFK(COCH2)Y (thioether 2-19 (inferred)) [cyclic peptide SEQ ID NO: 179] | ≥ 0.7 ratio |
| YCEENRLDPEQYQYFIYFK(COCH2)Y (thioether 2-19 (inferred)) [cyclic peptide SEQ ID NO: 193] | 0.1 to 0.5 ratio |
| YCEENNLDPEQYQYFIYFK(COCH2)Y (thioether 2-19 (inferred)) [cyclic peptide SEQ ID NO: 189] | 0.5 to 0.7 ratio |
| YCEEGYLDPEQYQYFIYFK(COCH2)Y (thioether 2-19 (inferred)) [cyclic peptide SEQ ID NO: 181] | 0.5 to 0.7 ratio |
| YCEENYEDPEQYQYFIYFK(COCH2)Y (thioether 2-19 (inferred)) [cyclic peptide SEQ ID NO: 204] | 0.1 to 0.5 ratio |
| YCEHNYLDPEQYQYFIYFK(COCH2)Y (thioether 2-19 (inferred)) [cyclic peptide SEQ ID NO: 180] | ≥ 0.7 ratio |
| YCEENYSDPEQYQYFIYFK(COCH2)Y (thioether 2-19 (inferred)) [cyclic peptide SEQ ID NO: 202] | 0.5 to 0.7 ratio |
| YCEENYYDPEQYQYFIYFK(COCH2)Y (thioether 2-19 (inferred)) [cyclic peptide SEQ ID NO: 198] | ≥ 0.7 ratio |
| YCEENYFDPEQYQYFIYFK(COCH2)Y (thioether 2-19 (inferred)) [cyclic peptide SEQ ID NO: 197] | ≥ 0.7 ratio |

Other lines, results leading:

| ELISA luminescence signal at 10 nmol/L peptide, relative to SEQ ID NO: 47 (=1) | Binder |
| --- | --- |
| ≥ 0.7 ratio | YCEENYIDPEQYQYFIYFK(COCH2)Y (thioether 2-19 (inferred)) [cyclic peptide SEQ ID NO: 195] |
| ≥ 0.7 ratio | YCEENWLDPEQYQYFIYFK(COCH2)Y (thioether 2-19 (inferred)) [cyclic peptide SEQ ID NO: 188] |
| 0.1 to 0.5 ratio | YCEEQYLDPEQYQYFIYFK(COCH2)Y (thioether 2-19 (inferred)) [cyclic peptide SEQ ID NO: 183] |
| 0.1 to 0.5 ratio | YCEEWYLDPEQYQYFIYFK(COCH2)Y (thioether 2-19 (inferred)) [cyclic peptide SEQ ID NO: 182] |
| ≥ 0.7 ratio | YCEENYLYPEQYQYFIYFK(COCH2)Y (thioether 2-19 (inferred)) [cyclic peptide SEQ ID NO: 212] |
| ≥ 0.7 ratio | YCEENYRDPEQYQYFIYFK(COCH2)Y (thioether 2-19 (inferred)) [cyclic peptide SEQ ID NO: 205] |
| ≥ 0.7 ratio | YCETNYLDPEQYQYFIYFK(COCH2)Y (thioether 2-19 (inferred)) [cyclic peptide SEQ ID NO: 177] |
| 0.1 to 0.5 ratio | YCEENLLDPEQYQYFIYFK(COCH2)Y (thioether 2-19 (inferred)) [cyclic peptide SEQ ID NO: 186] |
| 0.1 to 0.5 ratio | YCEETYLDPEQYQYFIYFK(COCH2)Y (thioether 2-19 (inferred)) [cyclic peptide SEQ ID NO: 185] |
| 0.1 to 0.5 ratio | YCEENQLDPEQYQYFIYFK(COCH2)Y (thioether 2-19 (inferred)) [cyclic peptide SEQ ID NO: 190] |
| ≥ 0.7 ratio | YCEENFLDPEQYQYFIYFK(COCH2)Y (thioether 2-19 (inferred)) [cyclic peptide SEQ ID NO: 187] |
| 0.1 to 0.5 ratio | YCEESYLDPEQYQYFIYFK(COCH2)Y (thioether 2-19 (inferred)) [cyclic peptide SEQ ID NO: 184] |
| ≥ 0.7 ratio | YCEENYLNPEQYQYFIYFK(COCH2)Y (thioether 2-19 (inferred)) [cyclic peptide SEQ ID NO: 214] |
| ≥ 0.7 ratio | YCESNYLDPEQYQYFIYFK(COCH2)Y (thioether 2-19 (inferred)) [cyclic peptide SEQ ID NO: 176] |
| ≥ 0.7 ratio | YCEENYLQPEQYQYFIYFK(COCH2)Y (thioether 2-19 (inferred)) [cyclic peptide SEQ ID NO: 215] |
| ≥ 0.7 ratio | YCEENYLGPEQYQYFIYFK(COCH2)Y (thioether 2-19 (inferred)) [cyclic peptide SEQ ID NO: 207] |
| 0.1 to 0.5 ratio | YCEENYLIPEQYQYFIYFK(COCH2)Y (thioether 2-19 (inferred)) [cyclic peptide SEQ ID NO: 209] |
| ≥ 0.7 ratio | YCEENYVDPEQYQYFIYFK(COCH2)Y (thioether 2-19 (inferred)) [cyclic peptide SEQ ID NO: 196] |
| 0.1 to 0.5 ratio | YCEENDLDPEQYQYFIYFK(COCH2)Y (thioether 2-19 (inferred)) [cyclic peptide SEQ ID NO: 192] |
| ≥ 0.7 ratio | YCEENHLDPEQYQYFIYFK(COCH2)Y (thioether 2-19 (inferred)) [cyclic peptide SEQ ID NO: 194] |
| ≥ 0.7 ratio | YCEENYTDPEQYQYFIYFK(COCH2)Y (thioether 2-19 (inferred)) [cyclic peptide SEQ ID NO: 203] |
| ≥ 0.7 ratio | YCEENYWDPEQYQYFIYFK(COCH2)Y (thioether 2-19 (inferred)) [cyclic peptide SEQ ID NO: 199] |
| 0.1 to 0.5 ratio | YCEENYLLPEQYQYFIYFK(COCH2)Y (thioether 2-19 (inferred)) [cyclic peptide SEQ ID NO: 208] |
